Results from article PMC10343166.

Experiments:
[1] = biological target: Puromycin-sensitive aminopeptidase F433A mutant, with C-terminal polyhistidine sequence (human) (UniProt P55786); test: competitive inhibition of enzyme activity (Dixon plots); apparent Ki from inhibition of Ala-4MβNA cleavage at increasing peptide concentrations; 20 mM HEPES pH 7.0, 2 mM BME, 37°C; 20 μM (PSA^wt) or 100 μM (PSA^F433A) Ala-4MβNA; triplicate
[2] = biological target: Puromycin-sensitive aminopeptidase, wild type, with C-terminal polyhistidine sequence (kinetic studies) (human) (UniProt P55786); test: as above
Sequence of Puromycin-sensitive aminopeptidase, wild type, with C-terminal polyhistidine sequence (kinetic studies) (human) (P55786 whole entry): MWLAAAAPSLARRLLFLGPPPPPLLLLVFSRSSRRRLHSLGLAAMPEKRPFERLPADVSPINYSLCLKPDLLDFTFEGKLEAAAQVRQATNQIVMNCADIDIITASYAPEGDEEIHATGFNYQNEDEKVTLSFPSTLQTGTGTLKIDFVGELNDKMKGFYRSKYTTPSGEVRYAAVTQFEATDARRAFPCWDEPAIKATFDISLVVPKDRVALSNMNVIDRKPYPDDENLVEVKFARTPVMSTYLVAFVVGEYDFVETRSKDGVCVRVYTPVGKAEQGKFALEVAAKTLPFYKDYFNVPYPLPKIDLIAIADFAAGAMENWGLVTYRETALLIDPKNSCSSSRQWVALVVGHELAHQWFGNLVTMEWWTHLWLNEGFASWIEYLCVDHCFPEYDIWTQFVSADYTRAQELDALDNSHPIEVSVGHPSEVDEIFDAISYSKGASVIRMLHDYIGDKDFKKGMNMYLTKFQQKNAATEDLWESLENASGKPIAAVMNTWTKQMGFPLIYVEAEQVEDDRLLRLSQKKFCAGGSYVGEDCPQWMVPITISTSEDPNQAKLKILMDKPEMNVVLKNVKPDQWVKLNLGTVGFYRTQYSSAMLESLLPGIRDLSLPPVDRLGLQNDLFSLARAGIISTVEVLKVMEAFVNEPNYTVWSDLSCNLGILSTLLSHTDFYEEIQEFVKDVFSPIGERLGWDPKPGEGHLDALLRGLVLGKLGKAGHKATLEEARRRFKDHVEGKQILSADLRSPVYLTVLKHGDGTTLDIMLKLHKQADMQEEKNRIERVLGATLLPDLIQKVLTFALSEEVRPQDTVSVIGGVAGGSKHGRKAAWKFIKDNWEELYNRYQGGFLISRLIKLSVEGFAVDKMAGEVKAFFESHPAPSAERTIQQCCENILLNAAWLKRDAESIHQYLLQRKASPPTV

Sequence of Puromycin-sensitive aminopeptidase F433A mutant, with C-terminal polyhistidine sequence (human) (P55786 whole entry F433A): as the sequence (P55786 whole entry) above, with F433A counted along it

Ki [1]: 2.6 µM
Ki [2]: 0.44 µM
Substance: Dynorphin A(1–17) (peptide)
